Experimental data: patent publication US20140147490A1, “HLA CLASS I A2 TUMOR ASSOCIATED ANTIGEN PEPTIDES AND VACCINE COMPOSITIONS” (priority 2012, published 2014)

T1: HLA-A*6802 (human, UniProt P30375 25-308 (Gorilla gorilla entry), limits assumed)
T1 construct: purified HLA molecule; b2m and chain limits not described
T1 MHC heavy: not shown


Legend:
[1] = test system: patients with recurrent or residual cervical carcinoma; conditions: cited from earlier work
[2] = biological target: T1, HLA-A*6802; assay: competitive binding assay, purified HLA
[3] = biological target: T1, HLA-A*6802; assay: competitive inhibition assay, purified HLA

Row | Molecule | responding patients ([1]; 95% interval 10-65%) | safety ([1]; immunocompromised cervical carcinoma patients) | IC50 [2] | IC50 [3]
1 | aKXVAAWTLKAAa-NH2 [PADRE] | 33% | favorable safety profile |  | 
2 | VVLGVVFGI (native HER2/neu peptide) [Her2/neu.665] |  |  | 2000 nM | 2000 nM
3 | HLYQGCQVV (native HER2/neu peptide) [Her2/neu.48] |  |  |  | 1140 nM
